The values that follow come from paper PMC10663500, “High-throughput analysis system of interaction kinetics for data-driven antibody design” (Scientific Reports, 2023).

To fix the notation:
B1: toripalimab Fab L.P100Q (Fab, V domains shown)
VH: QGQLVQSGAEVKKPGASVKVSCKASGYTFTDYEMHWVRQAPIHGLEWIGVIESETGGTAYNQKFKGRVTITADKSTSTAYMELSSLRSEDTAVYYCAREGITTVATTYYWYFDVWGQGTTVTVSS
VL: DVVMTQSPLSLPVTLGQPASISCRSSQSIVHSNGNTYLEWYLQKPGQSPQLLIYKVSNRFSGVPDRFSGSGSGTDFTLKISRVEAEDVGVYYCFQGSHVQLTFGQGTKLEIK
notes: as the heavy chain of Sm3; light chain of Sm3 with this change; numbers count from the chain's first residue; source: Brevibacillus, culture supernatant (ammonium sulfate precipitate); not shown: 6xHis, C-terminal, kept; 6xHN, C-terminal, kept
B2: toripalimab Fab L.L101F (Fab, V domains shown)
VH: B1 VH
VL: B1 VL with Q100P, L101F
notes: as for B1
B3: toripalimab Fab L.L101I (Fab, V domains shown)
VH: B1 VH
VL: B1 VL with Q100P, L101I
notes: as for B1
B4: toripalimab Fab L.L101T (Fab, V domains shown)
VH: B1 VH
VL: B1 VL with Q100P, L101T
notes: as for B1
B5: toripalimab Fab L.L101K (Fab, V domains shown)
VH: B1 VH
VL: B1 VL with Q100P, L101K
notes: as for B1
B6: toripalimab Fab L.L101D (Fab, V domains shown)
VH: B1 VH
VL: B1 VL with Q100P, L101D
notes: as for B1
B7: toripalimab Fab L.P100S (Fab, V domains shown)
VH: B1 VH
VL: B1 VL with Q100S
notes: as for B1
B8: toripalimab Fab H.S53Y (Fab, V domains shown)
VH: B1 VH with S53Y
VL: B1 VL with Q100P
notes: heavy chain of Sm3 with this change; numbers count from the chain's first residue; as the light chain of Sm3; source: Brevibacillus, culture supernatant (ammonium sulfate precipitate); not shown: 6xHis, C-terminal, kept; 6xHN, C-terminal, kept
B9: toripalimab Fab L.P100T (Fab, V domains shown)
VH: B1 VH
VL: B1 VL with Q100T
notes: as for B1
B10: toripalimab Fab L.P100Y (Fab, V domains shown)
VH: B1 VH
VL: B1 VL with Q100Y
notes: as for B1
B11: toripalimab Fab L.P100R (Fab, V domains shown)
VH: B1 VH
VL: B1 VL with Q100R
notes: as for B1
B12: toripalimab Fab L.L101S (Fab, V domains shown)
VH: B1 VH
VL: B1 VL with Q100P, L101S
notes: as for B1
B13: toripalimab Fab L.P100V (Fab, V domains shown)
VH: B1 VH
VL: B1 VL with Q100V
notes: as for B1
B14: toripalimab Fab L.L101Q (Fab, V domains shown)
VH: B1 VH
VL: B1 VL with Q100P, L101Q
notes: as for B1
B15: toripalimab Fab L.L101G (Fab, V domains shown)
VH: B1 VH
VL: B1 VL with Q100P, L101G
notes: as for B1
B16: toripalimab Fab L.L101E (Fab, V domains shown)
VH: B1 VH
VL: B1 VL with Q100P, L101E
notes: as for B1
B17: toripalimab Fab L.L101N (Fab, V domains shown)
VH: B1 VH
VL: B1 VL with Q100P, L101N
notes: as for B1
B18: toripalimab Fab L.L101A (Fab, V domains shown)
VH: B1 VH
VL: B1 VL with Q100P, L101A
notes: as for B1
B19: toripalimab Fab L.P100W (Fab, V domains shown)
VH: B1 VH
VL: B1 VL with Q100W
notes: as for B1
B20: toripalimab Fab H.E54A (Fab, V domains shown)
VH: B1 VH with E54A
VL: B1 VL with Q100P
notes: as for B8
B21: toripalimab Fab L.L101M (Fab, V domains shown)
VH: B1 VH
VL: B1 VL with Q100P, L101M
notes: as for B1

Changes are numbered by the printed parent chain.

The target of one test is T1, human programmed cell death protein 1 (hPD-1) C93S (aa 24-167) (Homo sapiens, UniProt Q15116, C93S).
T1 construct: made as a fusion with a TEV site and human Fc; the Fc was cut off with TEV protease; source: Expi293F, purified (Protein A, TEV cleavage of Fc, SEC; monomer fractions); not shown: Fc (human), C-terminal, cleaved
T1 sequence (Q15116 24-167 C93S): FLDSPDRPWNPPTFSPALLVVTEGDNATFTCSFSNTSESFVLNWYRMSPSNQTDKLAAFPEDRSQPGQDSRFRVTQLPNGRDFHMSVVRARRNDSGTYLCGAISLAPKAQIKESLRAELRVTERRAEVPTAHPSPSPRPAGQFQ
The experiment in a line: SPR; Carterra LSA; Fab from the ammonium sulfate precipitate of the culture supernatant immobilised on a NiHC200M chip; hPD-1 (1-1024 nM) or mPD-1-Fc (4-1024 nM) as analyte, fourfold dilution series, no regeneration; HBS-EP pH 7.4, 25 °C; medians over the spots of a construct, KD = koff/kon. Particulars: one partner purified. The gist of the method: (§1)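 Fabs from Brevibacillus culture supernatants were ammonium sulfate-precipitated, redissolved in HBS-EP and captured in duplicate on a NiHC200M chip (Carterra LSA, 25 °C). Human PD-1 (1–1024 nM) or mouse PD-1-Fc (4–1024 nM) flowed as fourfold series without regeneration, with 10 min association and 5 min dissociation; unconfirmed binders were set to kon 10^3 […], koff 10^−2 s^−1. Rates came from kdka model fits (slow- or fast-dissociation settings, best fit); KD is koff/kon from per-construct medians.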
(In general: SPR reads the build-up and loss of mass on a sensor chip optically.)
Turning to B1, binding was characterised by a dissociation constant (Kd) of 9.25 nM; the off-rate constant (koff) (usually the first-order rate constant of dissociation) came out at 7.95e-05 s⁻¹; the kon – broadly, the second-order rate constant of association – is 8600 M⁻¹ s⁻¹.
The corresponding values for B2 are 7.96 nM, 0.000141 s⁻¹ and 17700 M⁻¹ s⁻¹.
The corresponding values for B3 are less than 1.55 nM, less than 1e-05 s⁻¹ and 6430 M⁻¹ s⁻¹.
For the molecule B4, the Kd (commonly the free concentration of one partner at which half of the binding sites on the other are occupied at equilibrium, for simple one-to-one binding) came to 5.05 nM; the koff turned out to be 3.03e-05 s⁻¹; the kon is 6000 M⁻¹ s⁻¹.
The corresponding values for B5 are 492 nM, 0.00276 s⁻¹ and 5600 M⁻¹ s⁻¹.
B6 gave a Kd of less than 1.66 nM, a koff of less than 1e-05 s⁻¹ and a kon of 6020 M⁻¹ s⁻¹.
Turning to B7, the Kd is less than 1.59 nM, the koff was less than 1e-05 s⁻¹ and the kon was 6280 M⁻¹ s⁻¹.
On to B8, for which the Kd was less than 1.18 nM, the koff was less than 1e-05 s⁻¹ and the kon was 8440 M⁻¹ s⁻¹.
B9 registered a Kd of 1.24 nM, a koff of 1.18e-05 s⁻¹ and a kon of 9480 M⁻¹ s⁻¹.
The matching figures for B10: less than 0.355 nM, less than 1e-05 s⁻¹ and 28200 M⁻¹ s⁻¹.
For B11, the Kd was 2.13 nM, the koff was determined as 1.32e-05 s⁻¹ and the kon was found to be 6230 M⁻¹ s⁻¹.
On to B12, for which the Kd came to 4.13 nM, the koff amounted to 2.42e-05 s⁻¹ and the kon turned out to be 5870 M⁻¹ s⁻¹.
On to B13, for which the Kd turned out to be 7.83 nM, the koff was 6.3e-05 s⁻¹ and the kon is 8040 M⁻¹ s⁻¹.
B14 had a Kd of 2.78 nM, a koff of 2.5e-05 s⁻¹ and a kon of 8990 M⁻¹ s⁻¹.
Take B15: the Kd was less than 1.95 nM, the koff was less than 1e-05 s⁻¹ and the kon amounted to 5120 M⁻¹ s⁻¹.
In turn, B16 came in with a Kd of 13.6 nM, a koff of 0.000124 s⁻¹ and a kon of 9060 M⁻¹ s⁻¹.
The matching figures for B17: less than 1.23 nM, less than 1e-05 s⁻¹ and 8160 M⁻¹ s⁻¹.
As for B18, the Kd was less than 1.61 nM, the koff is less than 1e-05 s⁻¹ and the kon came to 6210 M⁻¹ s⁻¹.
In turn, B19 returned a Kd of less than 1.54 nM, a koff of less than 1e-05 s⁻¹ and a kon of 6510 M⁻¹ s⁻¹.
The corresponding values for B20 are 1.23 nM, 2.52e-05 s⁻¹ and 20400 M⁻¹ s⁻¹.
Regarding B21, the Kd was less than 1.08 nM, the koff was less than 1e-05 s⁻¹ and the kon turned out to be 9290 M⁻¹ s⁻¹.

Another test deals with T2, mouse programmed cell death protein 1 Fc fusion protein (mPD-1-Fc), mPD-1 C60S (aa 25-167) (Mus musculus, UniProt Q02242, stabilised).
T2 construct: not cleaved; source: Expi293F, purified (Protein A, SEC; dimeric fraction); not shown: Fc (human), C-terminal, kept
The test is described as above. As to conditions: one partner purified. The essentials: as §1
As for B1, binding was put at a Kd of 8.31 nM, the koff came to 9.77e-05 s⁻¹ and the kon was found to be 11800 M⁻¹ s⁻¹.
The matching figures for B2: 1020 nM, 0.0615 s⁻¹ and 60300 M⁻¹ s⁻¹.
The matching figures for B3: 34.3 nM, 0.00056 s⁻¹ and 16300 M⁻¹ s⁻¹.
Molecule B4 returned a Kd of 116 nM, a koff of 0.00235 s⁻¹ and a kon of 20400 M⁻¹ s⁻¹.
B5 registered a Kd of 606 nM, a koff of 0.0212 s⁻¹ and a kon of 35000 M⁻¹ s⁻¹.
Turning to B6, binding was characterised by a dissociation constant (Kd) of 172 nM, the koff was found to be 0.0046 s⁻¹ and the on-rate (kon) stood at 26800 M⁻¹ s⁻¹.
B7 registered a Kd of 45.9 nM, a koff of 0.00105 s⁻¹ and a kon of 22900 M⁻¹ s⁻¹.
The corresponding values for B8 are 187 nM, 0.00628 s⁻¹ and 33500 M⁻¹ s⁻¹.
For B9, the Kd was 19.4 nM, the koff was determined as 0.000259 s⁻¹ and the kon is 13400 M⁻¹ s⁻¹.
Turning to B10, the Kd amounted to 1.79 nM, the koff was determined as 3.62e-05 s⁻¹ and the kon was found to be 20200 M⁻¹ s⁻¹.
The corresponding values for B11 are 24.7 nM, 0.000274 s⁻¹ and 11100 M⁻¹ s⁻¹.
The corresponding values for B12 are 48.2 nM, 0.000659 s⁻¹ and 13700 M⁻¹ s⁻¹.
The matching figures for B13: 30.1 nM, 0.000479 s⁻¹ and 15900 M⁻¹ s⁻¹.
On to B14, for which binding was put at a Kd of 265 nM, the koff amounted to 0.0143 s⁻¹ and the kon is 54000 M⁻¹ s⁻¹.
The matching figures for B15: 40.1 nM, 0.000405 s⁻¹ and 10100 M⁻¹ s⁻¹.
The corresponding values for B16 are 95.6 nM, 0.00392 s⁻¹ and 41000 M⁻¹ s⁻¹.
B17 displayed a Kd of 134 nM, a koff of 0.00447 s⁻¹ and a kon of 33300 M⁻¹ s⁻¹.
The corresponding values for B18 are 26.6 nM, 0.000225 s⁻¹ and 8470 M⁻¹ s⁻¹.
Regarding B19, the dissociation constant Kd is 3.6 nM, the koff was 3.39e-05 s⁻¹ and the kon stood at 9410 M⁻¹ s⁻¹.
The corresponding values for B20 are 202 nM, 0.00772 s⁻¹ and 38300 M⁻¹ s⁻¹.
The matching figures for B21: 24.5 nM, 0.000673 s⁻¹ and 27500 M⁻¹ s⁻¹.
